Values joined by “and” are separate entries in the source; they are usually repeats but may differ in a detail not shown here. Equal entries are not always repeated.
Biological target: SARS-CoV-2 spike protein, extraviral domain (aa 1-1213) (SARS-CoV-2) (UniProt P0DTC2)
Assay: SPR

For “pineapple-derived jacalin-related lectin AcmJRL (natural protein)”, the KD of a single replicate, from Langmuir isotherm was 7.9 µM and 11.5 µM and 14 µM, the KD of a single replicate, from rate constants was 3.1 µM and 4 µM and 2.7 µM and the Kd was 3.27 µM and 11.1 µM. The koff was 0.00342 s⁻¹ and the kon was 1060 M⁻¹ s⁻¹.

From article doi:10.1101/2022.05.27.493400
